Numbered stars: 1 amine (or outer) side, 2 acyl side, 3 side chain; on linkers, the order of the positions; unused ones are H or OH. Bridge positions count the residues as written; N and C are the ends. Square brackets hold non-standard residues; d marks the D form. Side chains are listed from the residue outwards. Ends that are not written are not given here. * marks the point of attachment. C18 diacid = O=C(O)CCCCCCCCCCCCCCCCC(=O)*; γGlu = O=C(O)[C@H](CCC(=O)[*:2])N[*:1]; Aib = CC(C)(N)C(=O)O
T1: human calcitonin receptor (human, UniProt P30988 25-474)
T1 sequence (looked up): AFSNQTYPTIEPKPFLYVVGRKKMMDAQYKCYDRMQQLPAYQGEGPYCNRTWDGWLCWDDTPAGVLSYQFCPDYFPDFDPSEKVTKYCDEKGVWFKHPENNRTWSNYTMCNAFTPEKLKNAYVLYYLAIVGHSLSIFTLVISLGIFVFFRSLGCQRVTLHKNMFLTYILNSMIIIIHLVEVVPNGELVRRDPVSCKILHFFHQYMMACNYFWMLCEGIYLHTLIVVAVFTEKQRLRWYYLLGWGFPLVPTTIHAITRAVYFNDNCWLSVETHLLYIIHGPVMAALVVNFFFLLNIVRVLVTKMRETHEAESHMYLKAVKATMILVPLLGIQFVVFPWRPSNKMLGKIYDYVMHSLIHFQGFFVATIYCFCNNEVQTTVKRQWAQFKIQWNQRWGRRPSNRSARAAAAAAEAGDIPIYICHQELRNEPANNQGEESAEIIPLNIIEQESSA

T2: human amylin receptor (calcitonin receptor co-expressed with receptor activity modifying protein, RAMP3) (human, UniProt P30988 25-474; O60896 24-148)
T2 sequence (looked up) 1: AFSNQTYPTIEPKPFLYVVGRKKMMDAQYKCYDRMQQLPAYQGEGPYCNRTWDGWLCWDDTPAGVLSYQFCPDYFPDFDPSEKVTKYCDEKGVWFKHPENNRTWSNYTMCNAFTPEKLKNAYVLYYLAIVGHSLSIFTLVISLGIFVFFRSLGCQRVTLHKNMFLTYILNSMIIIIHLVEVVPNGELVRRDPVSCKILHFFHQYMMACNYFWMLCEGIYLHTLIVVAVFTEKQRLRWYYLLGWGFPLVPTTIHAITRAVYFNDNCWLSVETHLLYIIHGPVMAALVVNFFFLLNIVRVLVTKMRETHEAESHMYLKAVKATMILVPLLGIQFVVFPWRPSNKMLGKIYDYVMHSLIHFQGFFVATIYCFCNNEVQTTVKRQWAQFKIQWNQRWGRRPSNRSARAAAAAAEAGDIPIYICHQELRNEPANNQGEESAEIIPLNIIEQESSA
T2 sequence (looked up) 2: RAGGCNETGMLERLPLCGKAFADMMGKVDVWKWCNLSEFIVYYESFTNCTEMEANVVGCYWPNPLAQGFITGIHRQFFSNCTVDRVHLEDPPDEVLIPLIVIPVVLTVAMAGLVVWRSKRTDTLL


Assays:
[1] = biological target: T1, human calcitonin receptor; experiment: cell-based or functional assay
[2] = biological target: T2, human amylin receptor (calcitonin …); experiment: cell-based or functional assay

Binder	EC50 (cAMP production) [1] [nM]	EC50 (cAMP production) [2] [nM]	Ratio (EC50 hCTR / EC50 hAMYR3) [2]
K([γGlu-C18 diacid])KCNTATCATQRLANFL[Aib]HSSHNFGPILPPTNVGSNTY-NH2 (disulfide 3-8; N-terminus assumed; SMILES CC[C@H](C)[C@H](NC(=O)[C@@H]1CCCN1C(=O)CNC(=O)[C@H](Cc1ccccc1)NC(=O)[C@H](CC(N)=O)NC(=O)[C@H](Cc1c[nH]cn1)NC(=O)[C@H](CO)NC(=O)[C@H](CO)NC(=O)[C@H](Cc1c[nH]cn1)NC(=O)C(C)(C)NC(=O)[C@H](CC(C)C)NC(=O)[C@H](Cc1ccccc1)NC(=O)[C@H](CC(N)=O)NC(=O)[C@H](C)NC(=O)[C@H](CC(C)C)NC(=O)[C@H](CCCNC(=N)N)NC(=O)[C@H](CCC(N)=O)NC(=O)[C@@H](NC(=O)[C@H](C)NC(=O)[C@@H]1CSSC[C@H](NC(=O)[C@H](CCCCN)NC(=O)[C@@H](N)CCCCNC(=O)CC[C@H](NC(=O)CCCCCCCCCCCCCCCCC(=O)O)C(=O)O)C(=O)N[C@@H](CC(N)=O)C(=O)N[C@@H]([C@@H](C)O)C(=O)N[C@@H](C)C(=O)N[C@@H]([C@@H](C)O)C(=O)N1)[C@@H](C)O)C(=O)N[C@@H](CC(C)C)C(=O)N1CCC[C@H]1C(=O)N1CCC[C@H]1C(=O)N[C@H](C(=O)N[C@@H](CC(N)=O)C(=O)N[C@H](C(=O)NCC(=O)N[C@@H](CO)C(=O)N[C@@H](CC(N)=O)C(=O)N[C@H](C(=O)N[C@@H](Cc1ccc(O)cc1)C(N)=O)[C@@H](C)O)C(C)C)[C@@H](C)O) [Peptide 131 (SEQ ID NO: 131)]	15.1	0.737	20.5
K([γGlu-C18 diacid])KCNTATCATQRLANFL[Aib]HSSNHFGPILPPTNVGSNTY-NH2 (disulfide 3-8; N-terminus assumed; SMILES CC[C@H](C)[C@H](NC(=O)[C@@H]1CCCN1C(=O)CNC(=O)[C@H](Cc1ccccc1)NC(=O)[C@H](Cc1c[nH]cn1)NC(=O)[C@H](CC(N)=O)NC(=O)[C@H](CO)NC(=O)[C@H](CO)NC(=O)[C@H](Cc1c[nH]cn1)NC(=O)C(C)(C)NC(=O)[C@H](CC(C)C)NC(=O)[C@H](Cc1ccccc1)NC(=O)[C@H](CC(N)=O)NC(=O)[C@H](C)NC(=O)[C@H](CC(C)C)NC(=O)[C@H](CCCNC(=N)N)NC(=O)[C@H](CCC(N)=O)NC(=O)[C@@H](NC(=O)[C@H](C)NC(=O)[C@@H]1CSSC[C@H](NC(=O)[C@H](CCCCN)NC(=O)[C@@H](N)CCCCNC(=O)CC[C@H](NC(=O)CCCCCCCCCCCCCCCCC(=O)O)C(=O)O)C(=O)N[C@@H](CC(N)=O)C(=O)N[C@@H]([C@@H](C)O)C(=O)N[C@@H](C)C(=O)N[C@@H]([C@@H](C)O)C(=O)N1)[C@@H](C)O)C(=O)N[C@@H](CC(C)C)C(=O)N1CCC[C@H]1C(=O)N1CCC[C@H]1C(=O)N[C@H](C(=O)N[C@@H](CC(N)=O)C(=O)N[C@H](C(=O)NCC(=O)N[C@@H](CO)C(=O)N[C@@H](CC(N)=O)C(=O)N[C@H](C(=O)N[C@@H](Cc1ccc(O)cc1)C(N)=O)[C@@H](C)O)C(C)C)[C@@H](C)O) [Peptide 135 (SEQ ID NO: 135)]	0.345	0.296	1.2
K([γGlu-C18 diacid])KCNTATCATQRLANFL[Aib]HSSPNFGPILPPTNVGSNTY-NH2 (disulfide 3-8; N-terminus assumed; SMILES CC[C@H](C)[C@H](NC(=O)[C@@H]1CCCN1C(=O)CNC(=O)[C@H](Cc1ccccc1)NC(=O)[C@H](CC(N)=O)NC(=O)[C@@H]1CCCN1C(=O)[C@H](CO)NC(=O)[C@H](CO)NC(=O)[C@H](Cc1c[nH]cn1)NC(=O)C(C)(C)NC(=O)[C@H](CC(C)C)NC(=O)[C@H](Cc1ccccc1)NC(=O)[C@H](CC(N)=O)NC(=O)[C@H](C)NC(=O)[C@H](CC(C)C)NC(=O)[C@H](CCCNC(=N)N)NC(=O)[C@H](CCC(N)=O)NC(=O)[C@@H](NC(=O)[C@H](C)NC(=O)[C@@H]1CSSC[C@H](NC(=O)[C@H](CCCCN)NC(=O)[C@@H](N)CCCCNC(=O)CC[C@H](NC(=O)CCCCCCCCCCCCCCCCC(=O)O)C(=O)O)C(=O)N[C@@H](CC(N)=O)C(=O)N[C@@H]([C@@H](C)O)C(=O)N[C@@H](C)C(=O)N[C@@H]([C@@H](C)O)C(=O)N1)[C@@H](C)O)C(=O)N[C@@H](CC(C)C)C(=O)N1CCC[C@H]1C(=O)N1CCC[C@H]1C(=O)N[C@H](C(=O)N[C@@H](CC(N)=O)C(=O)N[C@H](C(=O)NCC(=O)N[C@@H](CO)C(=O)N[C@@H](CC(N)=O)C(=O)N[C@H](C(=O)N[C@@H](Cc1ccc(O)cc1)C(N)=O)[C@@H](C)O)C(C)C)[C@@H](C)O) [Peptide 132 (SEQ ID NO: 132)]	3.85	0.416	9.3
K([γGlu-C18 diacid])KCNTATCATQRLANFL[Aib]HSSSNFGPILPPTNVGSNTY-NH2 (disulfide 3-8; N-terminus assumed; SMILES CC[C@H](C)[C@H](NC(=O)[C@@H]1CCCN1C(=O)CNC(=O)[C@H](Cc1ccccc1)NC(=O)[C@H](CC(N)=O)NC(=O)[C@H](CO)NC(=O)[C@H](CO)NC(=O)[C@H](CO)NC(=O)[C@H](Cc1c[nH]cn1)NC(=O)C(C)(C)NC(=O)[C@H](CC(C)C)NC(=O)[C@H](Cc1ccccc1)NC(=O)[C@H](CC(N)=O)NC(=O)[C@H](C)NC(=O)[C@H](CC(C)C)NC(=O)[C@H](CCCNC(=N)N)NC(=O)[C@H](CCC(N)=O)NC(=O)[C@@H](NC(=O)[C@H](C)NC(=O)[C@@H]1CSSC[C@H](NC(=O)[C@H](CCCCN)NC(=O)[C@@H](N)CCCCNC(=O)CC[C@H](NC(=O)CCCCCCCCCCCCCCCCC(=O)O)C(=O)O)C(=O)N[C@@H](CC(N)=O)C(=O)N[C@@H]([C@@H](C)O)C(=O)N[C@@H](C)C(=O)N[C@@H]([C@@H](C)O)C(=O)N1)[C@@H](C)O)C(=O)N[C@@H](CC(C)C)C(=O)N1CCC[C@H]1C(=O)N1CCC[C@H]1C(=O)N[C@H](C(=O)N[C@@H](CC(N)=O)C(=O)N[C@H](C(=O)NCC(=O)N[C@@H](CO)C(=O)N[C@@H](CC(N)=O)C(=O)N[C@H](C(=O)N[C@@H](Cc1ccc(O)cc1)C(N)=O)[C@@H](C)O)C(C)C)[C@@H](C)O) [Peptide 133 (SEQ ID NO: 133)]	2.58	0.378	6.8
K([γGlu-C18 diacid])KCNTATCATQRLAEFL[Aib]HSSHNFGPILPPTNVGSNTY-NH2 (disulfide 3-8; N-terminus assumed; SMILES CC[C@H](C)[C@H](NC(=O)[C@@H]1CCCN1C(=O)CNC(=O)[C@H](Cc1ccccc1)NC(=O)[C@H](CC(N)=O)NC(=O)[C@H](Cc1c[nH]cn1)NC(=O)[C@H](CO)NC(=O)[C@H](CO)NC(=O)[C@H](Cc1c[nH]cn1)NC(=O)C(C)(C)NC(=O)[C@H](CC(C)C)NC(=O)[C@H](Cc1ccccc1)NC(=O)[C@H](CCC(=O)O)NC(=O)[C@H](C)NC(=O)[C@H](CC(C)C)NC(=O)[C@H](CCCNC(=N)N)NC(=O)[C@H](CCC(N)=O)NC(=O)[C@@H](NC(=O)[C@H](C)NC(=O)[C@@H]1CSSC[C@H](NC(=O)[C@H](CCCCN)NC(=O)[C@@H](N)CCCCNC(=O)CC[C@H](NC(=O)CCCCCCCCCCCCCCCCC(=O)O)C(=O)O)C(=O)N[C@@H](CC(N)=O)C(=O)N[C@@H]([C@@H](C)O)C(=O)N[C@@H](C)C(=O)N[C@@H]([C@@H](C)O)C(=O)N1)[C@@H](C)O)C(=O)N[C@@H](CC(C)C)C(=O)N1CCC[C@H]1C(=O)N1CCC[C@H]1C(=O)N[C@H](C(=O)N[C@@H](CC(N)=O)C(=O)N[C@H](C(=O)NCC(=O)N[C@@H](CO)C(=O)N[C@@H](CC(N)=O)C(=O)N[C@H](C(=O)N[C@@H](Cc1ccc(O)cc1)C(N)=O)[C@@H](C)O)C(C)C)[C@@H](C)O) [Peptide 130 (SEQ ID NO: 130)]	6.69	0.446	15
K([γGlu-C18 diacid])KCNTATCATQRLANFL[Aib]HSSNNFGPILPPTPVGSNTY-NH2 (disulfide 3-8; N-terminus assumed; SMILES CC[C@H](C)[C@H](NC(=O)[C@@H]1CCCN1C(=O)CNC(=O)[C@H](Cc1ccccc1)NC(=O)[C@H](CC(N)=O)NC(=O)[C@H](CC(N)=O)NC(=O)[C@H](CO)NC(=O)[C@H](CO)NC(=O)[C@H](Cc1c[nH]cn1)NC(=O)C(C)(C)NC(=O)[C@H](CC(C)C)NC(=O)[C@H](Cc1ccccc1)NC(=O)[C@H](CC(N)=O)NC(=O)[C@H](C)NC(=O)[C@H](CC(C)C)NC(=O)[C@H](CCCNC(=N)N)NC(=O)[C@H](CCC(N)=O)NC(=O)[C@@H](NC(=O)[C@H](C)NC(=O)[C@@H]1CSSC[C@H](NC(=O)[C@H](CCCCN)NC(=O)[C@@H](N)CCCCNC(=O)CC[C@H](NC(=O)CCCCCCCCCCCCCCCCC(=O)O)C(=O)O)C(=O)N[C@@H](CC(N)=O)C(=O)N[C@@H]([C@@H](C)O)C(=O)N[C@@H](C)C(=O)N[C@@H]([C@@H](C)O)C(=O)N1)[C@@H](C)O)C(=O)N[C@@H](CC(C)C)C(=O)N1CCC[C@H]1C(=O)N1CCC[C@H]1C(=O)N[C@H](C(=O)N1CCC[C@H]1C(=O)N[C@H](C(=O)NCC(=O)N[C@@H](CO)C(=O)N[C@@H](CC(N)=O)C(=O)N[C@H](C(=O)N[C@@H](Cc1ccc(O)cc1)C(N)=O)[C@@H](C)O)C(C)C)[C@@H](C)O) [Peptide 134 (SEQ ID NO: 134)]	2.22	0.281	7.9
